One molecule from article PMC11601375 (bioRxiv, 2024) can be followed below.

The target of this experiment is T1, vacuolar Qa-SNARE Vam3 (yeast, UniProt Q12241 1-283).
T1 sequence: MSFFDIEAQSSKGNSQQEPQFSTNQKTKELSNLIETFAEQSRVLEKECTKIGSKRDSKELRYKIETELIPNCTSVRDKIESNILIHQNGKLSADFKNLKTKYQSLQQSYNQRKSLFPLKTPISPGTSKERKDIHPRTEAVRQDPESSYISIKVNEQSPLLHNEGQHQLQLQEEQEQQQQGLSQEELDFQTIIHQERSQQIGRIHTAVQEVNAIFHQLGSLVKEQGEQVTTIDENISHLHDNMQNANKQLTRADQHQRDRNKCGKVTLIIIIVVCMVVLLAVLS
In words: co-IP.

B1: vacuolar Qb-SNARE Vti1 (natural protein)
chain: MSSLLISYESDFKTTLEQAKASLAEAPSQPLSQRNTTLKHVEQQQDELFDLLDQMDVEVNNSIGDASERATYKAKLREWKKTIQSDIKRPLQSLVDSGDRDRLFGDLNASNIDDDQRQQLLSNHAILQKSGDRLKDASRIANETEGIGSQIMMDLRSQRETLENARQTLFQADSYVDKSIKTLKTMTRRLVANKFISYAIIAVLILLILLVLFSKFK
As to B1, the binding result is listed as “binds”.
